Assay results: paper PMC12421817, “c-di-GMP regulates bacterial NAD biosynthesis via targeting the transcriptional repressor NadR” (mBio, 2025)
Where a chain is given by its changes, count along the chain named.

Tests used:
[1] = target: T1, NadR R212A R212A (Salmonella enterica serovar Typhimurium) (UniProt P24518); test: EMSA; conditions: EMSA: 50 ng DNA, 20 mM Tris pH 7.5, 100 mM NaCl, 10% glycerol, 4 mM MgCl2, 1% NP-40, 1 mM DTT, 25 uL, 20 min room temperature; 6% native PAGE, 0.5x TBE, SYBR …
T1 sequence: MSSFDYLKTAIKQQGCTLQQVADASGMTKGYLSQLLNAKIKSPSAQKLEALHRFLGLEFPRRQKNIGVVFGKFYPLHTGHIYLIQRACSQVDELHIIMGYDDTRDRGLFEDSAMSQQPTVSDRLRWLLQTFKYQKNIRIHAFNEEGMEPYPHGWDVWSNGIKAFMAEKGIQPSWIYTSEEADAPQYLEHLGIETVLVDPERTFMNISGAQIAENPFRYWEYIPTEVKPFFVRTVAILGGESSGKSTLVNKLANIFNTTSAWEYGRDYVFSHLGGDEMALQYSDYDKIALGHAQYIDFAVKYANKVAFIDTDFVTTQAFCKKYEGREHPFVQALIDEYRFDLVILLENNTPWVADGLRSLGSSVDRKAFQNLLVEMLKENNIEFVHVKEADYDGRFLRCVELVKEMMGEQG

[2] = target: T2, NadR H80A H80A (Salmonella enterica serovar Typhimurium) (UniProt P24518); test: EMSA; conditions: EMSA: 50 ng DNA, 20 mM Tris pH 7.5, 100 mM NaCl, 10% glycerol, 4 mM MgCl2, 1% NP-40, 1 mM DTT, 25 uL, 20 min room temperature; 6% native PAGE, 0.5x TBE, SYBR …
T2 sequence: T1 sequence with H80A, A212R

Sequence: GCTCATCGTGGCTTCTCGTTTTACTGACTTAACGAAACAACCGAATGAAAGCGTAATAAACGCCACAATCGGTTAATTTGTTTTATATGCTAAACAAGATAGCTGATTCAATAAGGAAAGTCACAATAATTACGTAGCCCCGTATCTGATGGCGGCGTAACGTCTTATCTGGCCTACGTGAGCGGTGCCGTCTGTAGGCCTGAT (double strand) [nadA-pnuC promoter]
- binding [1]: binds
- binding [2]: binds

Sequence: GGTTCTTGTTTAATTTACTAAACATGGTTGCGGCAGATTAGCACTATATGGCGCTAAAAAGCACGTTATGATTTCGCTGGTGTTGTGCTTATTAAACATAAAATAAAAATACGGCGAGAGATAAACGGCAAAAAATATTTTATAGGGCAGGGTGTTAGCGTCGGATTTTGTAGTGAAATAAAGATGCTGTTAGGTTACTC (double strand) [nadB promoter]
- binding [1]: binds
- binding [2]: binds
